In patent publication US20240124563A1:

What was measured:
[1] = biological target: monkey MSLN full-length protein on HEK293T cells (monkey); test: FACS, HEK293T-monkey MSLN cells
[2] = biological target: human MSLN-R1-his protein (human) (UniProt Q13421); test: ELISA, coated antigen, 100 nM antibody
[3] = biological target: human MSLN-R3-rFc protein (human) (UniProt Q13421); test: ELISA, antibody 4 nM
[4] = biological target: human MSLN-R3-rFc protein (human) (UniProt Q13421); test: ELISA, antibody 20 nM
[5] = biological target: human MSLN-R3-rFc protein (human) (UniProt Q13421); test: ELISA, antibody 100 nM
[6] = biological target: human MSLN-R3-rFc protein (human) (UniProt Q13421); test: ELISA, antibody 0.0064 nM
[7] = biological target: human MSLN-R3-rFc protein (human) (UniProt Q13421); test: ELISA, antibody 1 nM
[8] = biological target: human MSLN-FL-his protein (human) (UniProt Q13421); test: ELISA, coated antigen, 0.2 nM antibody
human MSLN-FL-his protein (human), sequence (Q13421 other isoform, or with tags, fused parts or gaps): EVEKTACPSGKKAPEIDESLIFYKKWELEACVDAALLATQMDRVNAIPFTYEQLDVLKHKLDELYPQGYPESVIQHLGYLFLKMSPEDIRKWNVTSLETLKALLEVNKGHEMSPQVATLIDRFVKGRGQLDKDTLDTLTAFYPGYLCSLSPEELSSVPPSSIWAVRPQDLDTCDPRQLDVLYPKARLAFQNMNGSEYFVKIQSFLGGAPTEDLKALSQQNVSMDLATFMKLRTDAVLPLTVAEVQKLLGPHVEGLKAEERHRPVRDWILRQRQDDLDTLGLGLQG

[9] = biological target: human MSLN-FL-his protein (human) (UniProt Q13421); test: ELISA, coated antigen, 20 nM antibody
[10] = biological target: human MSLN-R2-his protein (human) (UniProt Q13421); test: ELISA, coated antigen, 100 nM antibody
human MSLN-R2-his protein (human), sequence (Q13421 other isoform, or with tags, fused parts or gaps): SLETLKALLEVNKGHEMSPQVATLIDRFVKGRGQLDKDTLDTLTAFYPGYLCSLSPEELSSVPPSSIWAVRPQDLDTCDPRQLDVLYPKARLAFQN

[11] = biological target: monkey MSLN full-length protein on HEK293T cells (monkey); test: FACS, HEK293T-monkey-MSLN cells, antibody 0.16 nM
[12] = biological target: monkey MSLN full-length protein on HEK293T cells (monkey); test: FACS, HEK293T-monkey-MSLN cells, antibody 100 nM
[13] = biological target: monkey MSLN full-length protein on HEK293T cells (monkey); test: FACS, HEK293T-monkey-MSLN cells, antibody 4 nM
[14] = biological target: monkey MSLN full-length protein on HEK293T cells (monkey); test: FACS, HEK293T-monkey-MSLN cells, antibody 0.0064 nM
[15] = biological target: monkey MSLN full-length protein on HEK293T cells (monkey); test: FACS, HEK293T-monkey-MSLN cells, antibody 20 nM
[16] = biological target: monkey MSLN full-length protein on HEK293T cells (monkey); test: FACS, HEK293T-monkey-MSLN cells, antibody 0.00128 nM
[17] = biological target: monkey MSLN full-length protein on HEK293T cells (monkey); test: FACS, HEK293T-monkey-MSLN cells, antibody 0.8 nM
[18] = biological target: monkey MSLN full-length protein on HEK293T cells (monkey); test: FACS, HEK293T-monkey-MSLN cells, antibody 0.032 nM

human MSLN-R1-his protein (human), sequence (Q13421 other isoform, or with tags, fused parts or gaps): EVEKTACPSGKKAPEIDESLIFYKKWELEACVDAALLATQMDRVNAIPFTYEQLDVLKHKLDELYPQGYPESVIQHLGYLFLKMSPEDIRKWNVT

## Tab108 (YP218, scFv-hIgG1 Fc) (Fc fusion)
[1]
  EC50: 0.83 nM
  Max MFI: 4240
[2]
  OD450 nm: 0.12 OD450 nm

## anti-human MSLN antibody (purchased from Acro, Cat. No. MSN-M30)
[3]
  OD450 nm: 0.23
[4]
  OD450 nm: 0.86
[5]
  OD450 nm: 1.11
[6]
  OD450 nm: 0.16
[7]
  OD450 nm: 0.11

## hIgG1 (IgG control) (antibody)
[8]
  OD450 nm: 0.24 OD450 nm
[9]
  OD450 nm: 0.28 OD450 nm
[2]
  OD450 nm: 0.2 OD450 nm
[10]
  OD450 nm: 0.16 OD450 nm

## Tab131 (m912, scFv-hIgG1 Fc) (Fc fusion)
[11]
  FACS signal (MFI): 83
[12]
  FACS signal (MFI): 87
[13]
  FACS signal (MFI): 86
[14]
  FACS signal (MFI): 85
[15]
  FACS signal (MFI): 85
[16]
  FACS signal (MFI): 93
[17]
  FACS signal (MFI): 87
[18]
  FACS signal (MFI): 106
